No end group written: not given here.
T1: HBD wt peptide (hepcidin binding domain of ferroportin with two arginines at each end)
T1 construct: Synthetic peptide; also called I-HBD (when immobilized on agarose beads or 96-well plates); HBD-beads
T1 peptide: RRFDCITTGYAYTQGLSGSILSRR


What was measured:
[1] = target: T1, HBD wt peptide (hepcidin binding domain …); assay: competition with sub saturating ^125I-hepcidin (0.6 ug/ml) for bead-immobilized HBD (I-HBD), 18 h at 37 C, gamma counting (FIG. 2B)
Protocol: FIGS. 2A-C illustrates that the binding of ¹²⁵I-hepcidin to HBD is specific and temperature dependent. In FIG. 2A peptides (HBD, scrambled-HBD or mutant (C326Y HBD) were conjugated to beads and ¹²⁵I-hepcidin was added to the bead-immobilized peptides (I-HBD) for 18 hours at 37° C. (black bars) or 4° C. (grey bars). The beads were washed and the amount of ¹²⁵I-hepcidin bound to the I-HBD was determined. In FIG. 2B a sub saturating concentration of ¹²⁵I-hepcidin (0.6 μg/ml) was incubated with I-HBD for 18 hours at 37° C. in the presence or absence of known concentrations of either hepcidin 25 (Hep 25-open circles) or hepcidin 25 synthesized with a tyrosine substitution at position M21 (Y-Hep 25) and the amount of radioactivity bound to the I-HBD determined. In FIG. 2C sub saturating levels of ¹²⁵I-hepcidin were incubated with I-HBD at different temperatures.
HBD peptides were immobilized by covalently attaching them to agarose beads. Immobilization was performed using AminoLink Plus Immobilization Kit (Pierce) following the manufacturer's instructions. 1.0 mg of HBD peptide was used per 2.0 ml of AminoLink beads. To measure hepcidin concentrations in biological fluids, samples were mixed with a defined concentration of ¹²⁵I-hepcidin and then added to HBD conjugated beads. […] The fluid was removed and the radioactivity bound to beads was determined by gamma counting (Perkin/Elmer).

[2] = target: T1, HBD wt peptide (hepcidin binding domain …); assay: binding to HBD, data not shown

apparent K [1]	binding result [2]	Binder
~200 nM		DTHFPICIFCCGCCHRSKCGMCCKT (peptide, UniProt P81172 60-84, looked up, ends and bridges not checked; also: native intramolecular disulfides, pairing not given here, mature; Synthetic peptide; also called Hep 25; Hep25) [hepcidin (hepcidin 25, native non-radioactive hepcidin)]
	no binding	ICIFCCGCCHRSKCGMCCKT (ends and bridges not checked; also: native intramolecular disulfides, pairing not given here) [Hep20 (hepcidin 20, hepcidin lacking the five amino terminal amino acids)]
